From patent publication US20050147555A1 (BRACCO SUISSE, published 2005)
Each block holds one binder with its values, some of them ahead of it. Positions of bridges follow the written chain, without caps; N, C: chain ends. Groups on a side chain read outwards from the residue. Chains are numbered I, II in the order given. No end group written: not given here. *: point of attachment. Biotin = O=C1N[C@H]2[C@H](CS[C@H]2CCCCC(=O)*)N1; fluorescein = fluorescein label on a side chain; AEEA = NCCOCCOCC(=O)O

What was measured:
[1] = molecular target: T1, KDR (VEGFR-2, Flk-1), full-length receptor on cells (human, UniProt P35968 20-1356); experiment: saturation binding of peptide/neutravidin-HRP complex, KDR- minus mock-transfected 293H cells
T1 construct: whole, on cells; endogenous on HUVECs in the functional assays; also called VEGF receptor 2
T1 sequence (P35968 20-1356): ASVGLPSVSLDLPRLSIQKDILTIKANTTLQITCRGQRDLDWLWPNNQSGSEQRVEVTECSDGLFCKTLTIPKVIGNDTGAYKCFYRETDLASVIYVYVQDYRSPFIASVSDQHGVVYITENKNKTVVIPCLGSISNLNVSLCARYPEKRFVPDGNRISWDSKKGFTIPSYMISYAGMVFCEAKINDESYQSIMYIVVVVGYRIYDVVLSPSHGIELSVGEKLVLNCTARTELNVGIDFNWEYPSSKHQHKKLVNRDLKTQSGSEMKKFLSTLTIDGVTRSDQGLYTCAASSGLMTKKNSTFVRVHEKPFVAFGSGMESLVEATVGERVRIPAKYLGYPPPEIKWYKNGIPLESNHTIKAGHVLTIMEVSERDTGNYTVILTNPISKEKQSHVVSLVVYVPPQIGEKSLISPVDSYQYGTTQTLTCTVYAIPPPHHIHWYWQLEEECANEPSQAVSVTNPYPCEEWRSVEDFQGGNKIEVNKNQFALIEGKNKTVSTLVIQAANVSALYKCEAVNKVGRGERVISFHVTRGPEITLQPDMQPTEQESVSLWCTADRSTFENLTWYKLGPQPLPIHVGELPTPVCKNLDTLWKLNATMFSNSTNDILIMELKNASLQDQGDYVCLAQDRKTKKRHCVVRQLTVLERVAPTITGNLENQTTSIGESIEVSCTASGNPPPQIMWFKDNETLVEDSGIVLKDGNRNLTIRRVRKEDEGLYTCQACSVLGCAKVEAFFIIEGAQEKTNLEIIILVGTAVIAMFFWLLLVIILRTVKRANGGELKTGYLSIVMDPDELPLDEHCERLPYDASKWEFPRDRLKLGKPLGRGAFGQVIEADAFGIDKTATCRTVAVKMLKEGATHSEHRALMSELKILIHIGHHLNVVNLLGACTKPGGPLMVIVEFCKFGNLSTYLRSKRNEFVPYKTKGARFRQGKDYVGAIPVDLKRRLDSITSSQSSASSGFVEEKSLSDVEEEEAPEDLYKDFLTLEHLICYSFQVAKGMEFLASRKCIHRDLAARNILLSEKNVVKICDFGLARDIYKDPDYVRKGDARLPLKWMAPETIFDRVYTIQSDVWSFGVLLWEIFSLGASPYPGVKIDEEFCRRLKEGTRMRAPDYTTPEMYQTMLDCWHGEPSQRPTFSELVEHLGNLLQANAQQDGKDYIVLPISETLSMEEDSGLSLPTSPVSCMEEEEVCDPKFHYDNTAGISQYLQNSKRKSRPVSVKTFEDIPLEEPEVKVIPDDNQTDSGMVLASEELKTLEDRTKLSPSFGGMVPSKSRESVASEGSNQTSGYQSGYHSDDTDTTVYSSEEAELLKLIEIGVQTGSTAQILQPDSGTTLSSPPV
Procedure: After incubation at room temperature, plates were transferred to 4° C. for another half-hour incubation. Subsequently, cells were washed five times with ice-cold M199 media and 1× with ice-cold PBS (in that order). After the final wash, 100 μL of ice cold TMB solution (KPL, cat. # 50-76-00) was added to each well, and each plate was incubated for 30 minutes at 37° C. in an air incubator.
Therefore, absorbance on the Y-axis of FIG. 8 is differential absorbance (KDR minus mock) and not the absolute absorbance.

Soluble KDR receptor [2] = molecular target: T2, Soluble KDR receptor (UniProt P35968 20-764, limits assumed); experiment: SPR (Biacore 3000), soluble KDR on CM5 chip; column kd,1, by the text the predominant off-rate kd,2; predominant off-rate (kd,2 by the text) printed under the head kd,1
T2 construct: Immobilised by amine coupling, RL 12721
T2 sequence (P35968 20-764 limits assumed): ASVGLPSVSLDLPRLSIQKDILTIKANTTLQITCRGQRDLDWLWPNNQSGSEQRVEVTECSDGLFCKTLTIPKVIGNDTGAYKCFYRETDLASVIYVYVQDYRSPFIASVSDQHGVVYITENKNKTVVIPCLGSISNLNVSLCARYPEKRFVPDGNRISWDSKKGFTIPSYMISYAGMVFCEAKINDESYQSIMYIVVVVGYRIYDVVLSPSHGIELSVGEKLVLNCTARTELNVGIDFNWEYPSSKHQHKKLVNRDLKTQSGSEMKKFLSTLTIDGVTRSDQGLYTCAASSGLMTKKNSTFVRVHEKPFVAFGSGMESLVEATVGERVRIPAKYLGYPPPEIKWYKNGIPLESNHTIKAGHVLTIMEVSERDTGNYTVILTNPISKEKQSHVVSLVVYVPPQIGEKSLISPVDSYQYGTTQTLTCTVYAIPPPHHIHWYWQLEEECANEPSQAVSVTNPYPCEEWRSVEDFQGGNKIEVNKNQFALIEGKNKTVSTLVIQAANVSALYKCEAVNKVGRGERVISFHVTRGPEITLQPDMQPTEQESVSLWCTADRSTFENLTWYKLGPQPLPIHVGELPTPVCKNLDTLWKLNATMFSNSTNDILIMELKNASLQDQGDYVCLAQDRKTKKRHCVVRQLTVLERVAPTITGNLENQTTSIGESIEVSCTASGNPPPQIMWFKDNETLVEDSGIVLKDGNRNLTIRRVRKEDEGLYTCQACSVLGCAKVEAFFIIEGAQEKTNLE
Procedure: (§1) Soluble KDR receptor was cross-linked to the dextran surface of a CM5 sensor chip by the standard amine coupling procedure. […] For association, peptides were injected at 20 μL/min for 2 minutes using the kinject program. Following a 3 minute dissociation period, any remaining peptide was stripped from the KDR surface with a quickinject of 50 mM NaOH, 1M NaCl for 15 s at 75 μL/min. […] Sensorgrams were analyzed by global analysis using BIAevaluation software 3.1.

Soluble KDR receptor [3] = molecular target: T2, Soluble KDR receptor; experiment: SPR (Biacore 3000), soluble KDR on CM5 chip; apparent KD
Procedure: as §1

Soluble KDR receptor [4] = molecular target: T2, Soluble KDR receptor; experiment: SPR (Biacore 3000), soluble KDR on CM5 chip; ratio of the KD of monomer P10 to the apparent KD of the head-to-head dimer
Procedure: as §1

Soluble KDR receptor [5] = molecular target: T2, Soluble KDR receptor; experiment: SPR (Biacore 3000), soluble KDR on CM5 chip; ka,1 (initial encounter)
Procedure: as §1

Soluble KDR receptor [6] = molecular target: T2, Soluble KDR receptor; experiment: SPR (Biacore 3000), soluble KDR on CM5 chip; ratio of the KD of monomer P9 to the apparent KD of the tail-to-tail dimer
Procedure: as §1
By design, the interaction of a dimeric peptide with KDR is expected to proceed through two kinetic steps.

Soluble KDR receptor [7] = molecular target: T2, Soluble KDR receptor; experiment: Biacore
Procedure: as §1

Soluble KDR receptor [8] = molecular target: T2, Soluble KDR receptor; experiment: SPR (Biacore 3000), soluble KDR on CM5 chip; column kd,1, by the text the predominant off-rate kd,2
Procedure: as §1

[9] = molecular target: T3, KDR-Fc (chimeric fusion of Ig Fc region with human KDR, R&D Systems #357-KD-050) (human, UniProt P35968 20-764); experiment: fluorescence polarisation, monodentate peptide against KDRFc
T3 construct: Bought; also called KDR Fc fusion; not shown: Ig Fc region of the bought chimera
T3 sequence (P35968 20-764, stated change not applied): as the sequence (P35968 20-764 limits assumed) above

- Kd [1]: 10 nM
B1: P6-XB (4X) on neutravidin-HRP (other)
peptide: Ac-GDSRVCWEDSWGGEVCFRYDPGGGK([AEEA-AEEA-Biotin])-NH2
modifications: disulfide 6-16; also: four peptides bound to neutravidin-HRP
notes: Peptides held on the four biotin sites of neutravidin-HRP; also called tetrameric P6-XB; P6-XB Tetramer

- koff (Soluble KDR receptor [2]): 0.000249 s⁻¹
- Kd (Soluble KDR receptor [3]): 2.24 nM
- fold increase in affinity over monomer P10 (Soluble KDR receptor [4]): > 560 fold
- kon (Soluble KDR receptor [5]): 111000 M⁻¹ s⁻¹
B2: Head-to-head dimer of P9 and P10 (peptide)
peptide 1: AQEPEGYAYWEVITLYHEEDGDGG
peptide 2: AQAFPRFGGDDYWIQQYLRYTDGG
modifications: not fully specified; N-terminal amino group carries an NH-PEG4-CO linker and amino-oxyacetyl group, oxime-linked to the other chain; N-terminal amino group carries an NH-PEG4-CO linker and levulinyl group, oxime-linked to the other chain
notes: also called H-H dimer

- Kd (Soluble KDR receptor [3]): 11.1 nM
- fold increase in affinity over monomer P9 (Soluble KDR receptor [6]): > 60 fold
- kon (Soluble KDR receptor [5]): 115000 M⁻¹ s⁻¹
- Kd (Soluble KDR receptor [7]): 11 nM
- koff (Soluble KDR receptor [8]): 0.00128 s⁻¹
B3: Tail-to-tail dimer of P9 and P10 (peptide)
peptide 1: Ac-AQEPEGYAYWEVITLYHEEDGDGGK-NH2
peptide 2: Ac-AQAFPRFGGDDYWIQQYLRYTDGGK-NH2
modifications: bridge I:25-II:25; not fully specified (bridges); printed as Ac-AQEPEGYAYWEVITLYHEEDGDGGK(Ac-AQAFPRFGGDDYWIQQYLRYTDGGK(—(O═)C(CH2CH2O)4CH2CH2NHC(═O)CH2CH2C(CH3)═NOCH2C(═O)NH(CH2CH2O)4CH2CH2C(═O)—)NH2)NH2; also: tail-to-tail dimer of two peptides joined through the Lys25 side chains
notes: also called T-T dimer; D31

- Kd [9]: 3 nM
Binder: AGPTWCEDDWYYCWLFGTGGGK(fluorescein)-NH2 (disulfide 6-13 (inferred)) [P12, monodentate peptide measured by FP]
